Results from PMC6319605 (Nature microbiology, 2018).

Target: Ubiquitin (Ub-propargylamide activity-based probe) (UniProt P0CG48 1-76, C-terminal propargylamide (Ub-PA), covalently linked to ChlaDUB1)
Assay: crystal structure

B1: Chlamydia trachomatis ChlaDUB1 (130-401) (enzyme)
chain: PVKTQEDLLPLVPEQVFVEMYEDMARRQTIEALVPAWDSDIIFKCLCYFHTLYPGLIPLETFPPATIFNFKQKIISILEDKKAVLRGEPIKGPLPICCSKENYRRHLQRTTLLPVFMWYHPTPKTLSDTMQTMKQLAIKGSVGASHWLLVIVDIQARRLVYFDSLYNYVMPPENMKKELQSFAQQLDQVYPAYDSKKFSVKIAAKEVIQRGSGSSCGAWCCQFLHWYLKDPLTDALNDLPVDSVERHENLASFVQACEAAVQDLPELSWPEA
modifications: covalently linked to one Ub molecule through the Ub-propargylamide probe (in the enzymatic S1 site)
B1: binds.
